B1: Cilgavimab (antibody, V domains shown)
VH: EVQLVESGGGLVKPGGSLRLSCAASGFTFRDVWMSWVRQAPGKGLEWVGRIKSKIDGGTTDYAAPVKGRFTISRDDSKNTLYLQMNSLKTEDTAVYYCTTAGSYYYDTVGPGLPEGKFDYWGQGTLVTVSS
VL: not shown
B2: Adintrevimab (antibody, V domains shown)
VH: EVQLVESGGGLVKPGGSLRLSCAASGFTFSSYYMNWVRQAPGKGLEWVSSISEDGYSTYYPDSLKGRFTISRDSAKNSLYLQMNSLRADDTAVYYCARDFSGHTAWAGTGFEYWGQGTLVTVSS
VL: QSVLTQPPSVSGAPGQRITISCTGSSSNIGAGYDVHWYQQLPGTAPKLLIYGSSSRNSGVPDRFSGSKSGTSASLAITGLQAEDEADYYCQSYDSSLSVLYTFGTGTKVTVL

Columns and labels:
Conditions in all cases: remark: other sources report otherwise
[1] = biological target: SARS-CoV-2 RBD (B.1.351) domain (SARS-CoV-2); test: ELISA
[2] = biological target: SARS-CoV-2 RBD (B.1.351) domain (SARS-CoV-2); test: ELISA; unit from paragraph 452, none printed in the heatmap
[3] = biological target: T1, SARS-CoV-2 Spike ectodomain (tri-S), Wuhan (SARS-CoV-2), P0DTC2; test: ELISA
[4] = biological target: SARS-CoV-2 RBD (B.1.1.7) domain (SARS-CoV-2); test: ELISA
[5] = biological target: SARS-CoV-2 RBD (P.1) domain (SARS-CoV-2); test: ELISA
[6] = biological target: T1, SARS-CoV-2 Spike ectodomain (tri-S), …; test: tri-S-ACE2 competition ELISA; unit from legend paragraph 348

Binder | OD405nm [1] | EC50 [2] [ng/mL] | OD405nm [3] | OD405nm [4] | OD405nm [5] | IC50 [6] [ng/mL]
B1 | 3.3 | 7 | – | – | – | –
B2 | 3.4 | 7 | 3 | 3.4 | 3.4 | 200

— patent publication US20240336672A1
